The results in this text go back to paper PMC8221569 (Molecular Cell, 2021).

Holding throughout (details): both partners purified
Experiment [1] concerns the target T1, histone H4 (recombinant) (human, UniProt P62805 2-103). As to the kind of experiment: crystal structure; DNAJC9 αB C243S mixed 1:1 with the MCM2 HBD (61–130)–H3.3 (57–135)–H4 complex, gel filtration in 500 mM NaCl; PDB 7CIZ, 1.80 Å.
The target in experiment [2] is T2, MCM2 HBD (61–130)–H3.3–H4 complex ( | human, UniProt P49736 61-130; P84243 1-136; P62805 2-103).
T2 construct: histone H3.3, human; histone H4, human; also called pre-assembled MCM2 HBD-H3.3-H4 complexes; MCM2 HBD–H3.3–H4 complex; source: purified as described previously (Huang et al., 2015); copies: + +
As to the kind of experiment: pull-down; GST-tagged protein (1.5 nmol) on Glutathione Sepharose 4B, 1.5 nmol histone complex added; 20 mM Tris pH 7.5, 500 mM NaCl, 4°C, 2 hours; washes with 0.5% Triton X-100; SDS-PAGE.

Experiment [3] concerns the target T3, human histones H3.3–H4 tetramer (human, UniProt P84243 1-136; P62805 1-103).
T3 construct: histone H3.3, human; histone H4, human; methods call it a tetramer; construct as in Huang et al., 2015; also called pre-assembled H3.3-H4; H3.3 WT-H4; source: bacteria, co-expressed and purified (as in Huang et al., 2015; Superdex 200 in 2 M NaCl); copies: 2 + 2
The experiment in a line: ITC; MicroCal PEAQ-ITC, 20°C, 20 mM Tris-HCl pH 7.5, 500 mM NaCl; 300 μM DNAJC9 HBD in the syringe, 30 μM (dimers) H3-H4 in the cell; one set of sites model; n = 3. For orientation: ITC needs no label: the signal is the heat of the interaction.

Experiment [4] deals with T1, histone H4 (recombinant). The experiment in a line: crystal structure; DNAJC9 HBD C243S mixed 1:1 with the MCM2 HBD (61–130)–H3.3 (57–135)–H4 complex, gel filtration in 1 M NaCl; PDB 7CJ0, 2.50 Å. In general terms: In gel filtration, larger molecules generally elute earlier.

B1: DNAJC9 αB C243S (204–249), GST tag removed (domain or fragment)
chain: RKELGLDEGVDSLKAAIQSRQKDRQKEMDNFLAQMEAKYSKSSKGG
notes: crystallized construct; also called isolated DNAJC9 αB helix (C243S); source: E. coli BL21 (DE3)-RIL, purified (Glutathione Sepharose 4B, 3C protease, Superdex 200)
Consider B1, for which the binding result in the experiment with histone H4 (recombinant) [1] is reported as “binds”.

B2: GST-DNAJC9 HBD (histone binding domain, 171–249) (domain or fragment)
chain: EVPSYNAFVKESKQKMNARKRRAQEEAKEAEMSRKELGLDEGVDSLKAAIQSRQKDRQKEMDNFLAQMEAKYCKSSKGG
notes: PDB 7CJ0 holds the same limits with C243S; also called GST-tagged DNAJC9 HBD; DNAJC9 HBD WT; source: E. coli BL21 (DE3)-RIL, purified (Glutathione Sepharose 4B, Superdex 200)
In the case of B2, the binding result in experiment [2] was “binds”.

B3: DNAJC9 HBD (171–249), GST tag removed (domain or fragment)
chain: EVPSYNAFVKESKQKMNARKRRAQEEAKEAEMSRKELGLDEGVDSLKAAIQSRQKDRQKEMDNFLAQMEAKYCKSSKGG
notes: used in ITC; also called DNAJC9 HBD WT; source: E. coli BL21 (DE3)-RIL, purified (Glutathione Sepharose 4B, 3C protease, Superdex 200)
For orientation: Kd means the equilibrium constant for the complex coming apart. The low end stands for higher affinity, the high end for lower affinity. Regarding B3, the affinity in experiment [3], expressed as Kd, was 55 nM.

B4: GST-DNAJC9 HBD 4A1 (E195A E196A E199A A200E) (domain or fragment)
chain: EVPSYNAFVKESKQKMNARKRRAQAAAKAEEMSRKELGLDEGVDSLKAAIQSRQKDRQKEMDNFLAQMEAKYCKSSKGG
notes: source: E. coli BL21 (DE3)-RIL, purified (Glutathione Sepharose 4B, Superdex 200)
B4: in experiment [2], the binding result was “binds”.

B5: GST-DNAJC9 HBD Q224A R227A (domain or fragment)
chain: EVPSYNAFVKESKQKMNARKRRAQEEAKEAEMSRKELGLDEGVDSLKAAIQSRAKDAQKEMDNFLAQMEAKYCKSSKGG
notes: as for B4
Take B5: the binding result in experiment [2] is “binds”.

B6: DNAJC9 HBD C243S (171–249), GST tag removed (domain or fragment)
chain: EVPSYNAFVKESKQKMNARKRRAQEEAKEAEMSRKELGLDEGVDSLKAAIQSRQKDRQKEMDNFLAQMEAKYSKSSKGG
notes: crystallized construct; source: E. coli BL21 (DE3)-RIL, purified (Glutathione Sepharose 4B, 3C protease, Superdex 200)
For B6, in the experiment with histone H4 (recombinant) [4], the binding result is recorded as “binds”.

B7: GST-DNAJC9 HBD M238A Y242A (domain or fragment)
chain: EVPSYNAFVKESKQKMNARKRRAQEEAKEAEMSRKELGLDEGVDSLKAAIQSRQKDRQKEMDNFLAQAEAKACKSSKGG
notes: as for B4
Regarding B7, in experiment [2], the binding result is reported as “binds”.

B8: GST-DNAJC9 HBD F234A L235A (domain or fragment)
chain: EVPSYNAFVKESKQKMNARKRRAQEEAKEAEMSRKELGLDEGVDSLKAAIQSRQKDRQKEMDNAAAQMEAKYCKSSKGG
notes: as for B4
Consider B8, for which, in experiment [2], the binding result was “binds”.
